Ends that are not written are not given here.

For this assay, the target named is concanavalin A (Canavalia ensiformis, UniProt P02866). In words: ITC.
Chain of concanavalin A (P02866 whole entry, looked up): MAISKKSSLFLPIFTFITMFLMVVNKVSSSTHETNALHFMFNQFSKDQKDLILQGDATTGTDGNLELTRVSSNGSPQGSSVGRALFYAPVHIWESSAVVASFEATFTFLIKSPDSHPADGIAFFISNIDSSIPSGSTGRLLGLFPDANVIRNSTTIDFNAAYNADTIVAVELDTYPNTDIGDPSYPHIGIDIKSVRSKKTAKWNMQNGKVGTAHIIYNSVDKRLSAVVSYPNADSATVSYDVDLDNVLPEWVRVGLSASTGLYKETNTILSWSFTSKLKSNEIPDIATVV

B1: Man-WYDLF (L37) (peptide)
chain: Man-WYDLF
Molecule B1 returned a Kd of 4.6 µM.

B2: Man-WYDLFDNINS (L30) (peptide)
chain: Man-WYDLFDNINS
As to B2, binding was put at a Kd of 4.3 µM.

These data come from publication PMC5553193 (2015).
